Reference: article doi:10.1101/2024.06.13.598862 (bioRxiv, 2024)

Biological target: full-length human tau, null cysteine variant (C291S, C322S) (human, UniProt P10636-8 1-441, C291S | C322S)
Test: co-phase separation

B1: Ydj1, yeast Hsp40 (natural protein, UniProt P25491 1-409, looked up)
chain: MVKETKFYDILGVPVTATDVEIKKAYRKCALKYHPDKNPSEEAAEKFKEASAAYEILSDPEKRDIYDQFGEDGLSGAGGAGGFPGGGFGFGDDIFSQFFGAGGAQRPRGPQRGKDIKHEISASLEELYKGRTAKLALNKQILCKECEGRGGKKGAVKKCTSCNGQGIKFVTRQMGPMIQRFQTECDVCHGTGDIIDPKDRCKSCNGKKVENERKILEVHVEPGMKDGQRIVFKGEADQAPDVIPGDVVFIVSERPHKSFKRDGDDLVYEAEIDLLTAIAGGEFALEHVSGDWLKVGIVPGEVIAPGMRKVIEGKGMPIPKYGGYGNLIIKFTIKFPENHFTSEENLKKLEEILPPRIVPAIPKKATVDECVLADFDPAKYNRTRASRGGANYDSDEEEQGGEGVQCASQ
B1: binds.
